Results: PMC5095531

Target: T1, native human lipocalin 2 (LCN2) (human), P80188
T1 chain: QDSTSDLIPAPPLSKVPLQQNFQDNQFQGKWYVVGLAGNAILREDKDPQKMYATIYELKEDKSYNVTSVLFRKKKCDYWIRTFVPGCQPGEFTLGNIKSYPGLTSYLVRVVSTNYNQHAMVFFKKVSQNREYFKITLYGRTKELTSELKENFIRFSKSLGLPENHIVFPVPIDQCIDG
Assay: non-reducing SDS-PAGE with immunoblot; purified proteins in vitro, non-reducing conditions, anti-human LCN2 antibodies; monomer about 20 kDa, dimer about 40 kDa
Settings: remark: other sources report otherwise

B1: native human lipocalin 2 (LCN2), P80188-1 21-198 (natural protein)
chain: QDSTSDLIPAPPLSKVPLQQNFQDNQFQGKWYVVGLAGNAILREDKDPQKMYATIYELKEDKSYNVTSVLFRKKKCDYWIRTFVPGCQPGEFTLGNIKSYPGLTSYLVRVVSTNYNQHAMVFFKKVSQNREYFKITLYGRTKELTSELKENFIRFSKSLGLPENHIVFPVPIDQCIDG
stoichiometry N: 2
